Measured values published in article PMC9482650, “Quantitative fragmentomics allow affinity mapping of interactomes” (Nature Communications, 2022).
Each block holds one binder with its values, some of them ahead of it.

How the values were obtained:
Test in all cases: holdup assay
Set-up in all cases: key: below the threshold = too weak to quantify, mostly under pKd 3.1 to 4
Conditions in all cases: plain residues with an end cap or a label only (N-terminal biotin on a linker: ado-ado)
APBA1_2, Q02410 = target: T1, APBA1_2, Q02410
T1 sequence (Q02410 742-832, limits assumed, looked up): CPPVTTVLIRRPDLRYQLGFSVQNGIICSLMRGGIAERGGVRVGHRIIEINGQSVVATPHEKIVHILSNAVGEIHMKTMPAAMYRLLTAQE

ARHGEF11, O15085 = target: T2, ARHGEF11, O15085
T2 sequence (O15085 42-136, limits assumed, looked up): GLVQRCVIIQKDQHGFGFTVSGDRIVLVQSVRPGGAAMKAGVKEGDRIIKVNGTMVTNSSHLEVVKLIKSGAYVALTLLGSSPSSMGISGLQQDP

ARHGEF12, Q9NZN5-2 = target: ARHGEF12, Q9NZN5-2
Sequence of ARHGEF12, Q9NZN5-2 (Q9NZN5 other isoform, or with tags, fused parts or gaps): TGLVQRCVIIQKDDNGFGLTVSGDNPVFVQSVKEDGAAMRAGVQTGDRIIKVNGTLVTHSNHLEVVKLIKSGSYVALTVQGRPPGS

CASK, O14936 = target: CASK, O14936
Sequence of CASK, O14936 (O14936 487-570): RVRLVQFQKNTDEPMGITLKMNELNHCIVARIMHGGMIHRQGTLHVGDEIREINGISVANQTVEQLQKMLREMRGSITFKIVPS

DLG1_1, Q12959 = target: DLG1_1, Q12959
DLG2_2, Q15700 = target: DLG2_2, Q15700
Sequence of DLG2_2, Q15700 (Q15700 189-283): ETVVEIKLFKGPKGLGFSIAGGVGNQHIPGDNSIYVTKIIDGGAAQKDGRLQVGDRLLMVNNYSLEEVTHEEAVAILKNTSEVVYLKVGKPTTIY

DLG4_2, P78352 = target: DLG4_2, P78352
Sequence of DLG4_2, P78352 (P78352 155-259): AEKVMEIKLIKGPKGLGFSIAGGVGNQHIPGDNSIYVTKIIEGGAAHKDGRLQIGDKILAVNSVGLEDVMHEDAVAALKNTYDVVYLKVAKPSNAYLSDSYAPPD

DLG5_1, Q8TDM6 = target: DLG5_1, Q8TDM6
Sequence of DLG5_1, Q8TDM6 (Q8TDM6 617-713): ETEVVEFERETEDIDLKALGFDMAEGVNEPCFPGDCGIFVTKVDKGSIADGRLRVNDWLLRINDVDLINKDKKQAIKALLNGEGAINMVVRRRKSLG

GRIP1_2, Q9Y3R0 = target: T3, GRIP1_2, Q9Y3R0
T3 sequence (Q9Y3R0 145-248, limits assumed, looked up): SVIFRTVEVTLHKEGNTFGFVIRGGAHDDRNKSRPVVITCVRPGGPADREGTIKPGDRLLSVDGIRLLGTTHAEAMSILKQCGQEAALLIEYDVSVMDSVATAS

GRIP1_3, Q9Y3R0 = target: T4, GRIP1_3, Q9Y3R0
T4 sequence (Q9Y3R0 247-346, limits assumed, looked up): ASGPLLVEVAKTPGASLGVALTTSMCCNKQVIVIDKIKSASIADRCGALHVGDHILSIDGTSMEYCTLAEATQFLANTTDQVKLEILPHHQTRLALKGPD

Inadl_10, Q8NI35 = target: Inadl_10, Q8NI35
Sequence of Inadl_10, Q8NI35 (Q8NI35 1673-1763): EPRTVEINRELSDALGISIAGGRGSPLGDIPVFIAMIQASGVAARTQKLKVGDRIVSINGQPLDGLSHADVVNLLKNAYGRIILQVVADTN

Inadl_4, Q8NI35 = target: Inadl_4, Q8NI35
Sequence of Inadl_4, Q8NI35 (Q8NI35 547-651): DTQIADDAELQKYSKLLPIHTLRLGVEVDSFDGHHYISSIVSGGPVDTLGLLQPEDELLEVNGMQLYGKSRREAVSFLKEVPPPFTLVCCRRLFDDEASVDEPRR

LRRC7, Q96NW7 = target: T5, LRRC7, Q96NW7
T5 sequence (Q96NW7 1440-1537, limits assumed, looked up): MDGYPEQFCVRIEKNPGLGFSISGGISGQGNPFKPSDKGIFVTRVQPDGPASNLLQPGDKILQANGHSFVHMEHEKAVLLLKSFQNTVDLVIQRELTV

MAGI2_3, Q86UL8 = target: MAGI2_3, Q86UL8
Sequence of MAGI2_3, Q86UL8 (Q86UL8 600-682): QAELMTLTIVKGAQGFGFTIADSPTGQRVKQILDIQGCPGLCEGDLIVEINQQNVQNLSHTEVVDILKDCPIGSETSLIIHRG

MAGI2_5, Q86UL8 = target: MAGI2_5, Q86UL8
Sequence of MAGI2_5, Q86UL8 (Q86UL8 915-1017): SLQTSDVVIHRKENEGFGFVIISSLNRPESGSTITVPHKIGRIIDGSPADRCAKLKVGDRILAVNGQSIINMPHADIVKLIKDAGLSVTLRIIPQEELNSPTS

MPDZ_12, O75970 = target: T6, MPDZ_12, O75970
T6 sequence (O75970 1857-1958, limits assumed, looked up): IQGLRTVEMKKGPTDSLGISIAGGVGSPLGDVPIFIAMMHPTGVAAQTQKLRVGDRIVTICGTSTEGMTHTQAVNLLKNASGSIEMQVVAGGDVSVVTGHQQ

NHERF4_2, Q86UT5 = target: NHERF4_2, Q86UT5
Sequence of NHERF4_2, Q86UT5 (Q86UT5 220-308): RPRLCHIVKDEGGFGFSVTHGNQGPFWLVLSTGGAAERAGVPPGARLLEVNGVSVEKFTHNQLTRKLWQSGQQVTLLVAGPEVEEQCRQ

PARD3_3, Q8TEW0 = target: PARD3_3, Q8TEW0
Sequence of PARD3_3, Q8TEW0 (Q8TEW0 582-685): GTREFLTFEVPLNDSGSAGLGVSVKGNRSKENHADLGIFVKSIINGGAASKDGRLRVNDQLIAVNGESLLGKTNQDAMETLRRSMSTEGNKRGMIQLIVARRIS

PDZRN3_1, Q9UPQ7 = target: T7, PDZRN3_1, Q9UPQ7
T7 sequence (Q9UPQ7 244-349, limits assumed, looked up): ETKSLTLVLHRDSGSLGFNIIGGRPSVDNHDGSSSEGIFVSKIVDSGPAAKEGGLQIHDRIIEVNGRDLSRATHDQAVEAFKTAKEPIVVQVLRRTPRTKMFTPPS

PTPN13_1, Q12923 = target: T8, PTPN13_1, Q12923
T8 sequence (Q12923 1088-1188, limits assumed, looked up): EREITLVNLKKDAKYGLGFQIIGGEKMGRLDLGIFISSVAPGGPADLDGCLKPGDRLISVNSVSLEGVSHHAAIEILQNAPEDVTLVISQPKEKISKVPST

RADIL, Q96JH8 = target: T9, RADIL, Q96JH8
T9 sequence (Q96JH8 971-1071, limits assumed, looked up): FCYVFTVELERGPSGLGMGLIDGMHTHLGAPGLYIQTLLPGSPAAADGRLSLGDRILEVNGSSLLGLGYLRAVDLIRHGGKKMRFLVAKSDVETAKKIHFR

RHPN1, Q8TCX5 = target: T10, RHPN1, Q8TCX5
T10 sequence (Q8TCX5 508-602, limits assumed, looked up): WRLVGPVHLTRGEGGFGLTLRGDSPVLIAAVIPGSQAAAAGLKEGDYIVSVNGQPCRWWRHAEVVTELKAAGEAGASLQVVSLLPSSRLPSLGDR

SCRIB_1, Q14160 = target: SCRIB_1, Q14160
Sequence of SCRIB_1, Q14160 (Q14160 718-814): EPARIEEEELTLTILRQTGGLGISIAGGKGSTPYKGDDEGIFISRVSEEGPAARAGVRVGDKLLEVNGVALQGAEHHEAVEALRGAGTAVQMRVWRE

SCRIB_3, Q14160 = target: SCRIB_3, Q14160
Sequence of SCRIB_3, Q14160 (Q14160 999-1103): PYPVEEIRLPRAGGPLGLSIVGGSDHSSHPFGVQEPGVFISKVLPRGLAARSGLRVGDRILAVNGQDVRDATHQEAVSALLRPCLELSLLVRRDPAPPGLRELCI

SNTB1, Q13884 = target: T11, SNTB1, Q13884
T11 sequence (Q13884 107-205, limits assumed, looked up): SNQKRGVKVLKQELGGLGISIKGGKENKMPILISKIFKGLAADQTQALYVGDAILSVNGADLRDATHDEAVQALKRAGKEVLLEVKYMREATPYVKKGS

SNTG2, Q9NY99 = target: T12, SNTG2, Q9NY99
T12 sequence (Q9NY99 68-166, limits assumed, looked up): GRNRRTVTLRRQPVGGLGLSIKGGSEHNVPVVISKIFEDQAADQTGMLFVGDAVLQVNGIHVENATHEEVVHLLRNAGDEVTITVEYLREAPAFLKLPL

B4: BPIFA2, Q96DR5 (peptide)
chain: QHKTQLQTLI
- pKd (APBA1_2, Q02410): below the threshold
- pKd (ARHGEF11, O15085): 3.7
- pKd (ARHGEF12, Q9NZN5-2): 4.33
- pKd (CASK, O14936): below the threshold
- pKd (DLG1_1, Q12959): 4.34
- pKd (DLG2_2, Q15700): 4.32
- pKd (DLG4_2, P78352): 4.56
- pKd (DLG5_1, Q8TDM6): 3.48
- pKd (GRIP1_2, Q9Y3R0): below the threshold
- pKd (GRIP1_3, Q9Y3R0): below the threshold
- pKd (Inadl_10, Q8NI35): below the threshold
- pKd (Inadl_4, Q8NI35): below the threshold
- pKd (LRRC7, Q96NW7): below the threshold
- pKd (MAGI2_3, Q86UL8): below the threshold
- pKd (MAGI2_5, Q86UL8): 4.78
- pKd (MPDZ_12, O75970): below the threshold
- pKd (NHERF4_2, Q86UT5): below the threshold
- pKd (PARD3_3, Q8TEW0): 3.83
- pKd (PDZRN3_1, Q9UPQ7): 3.65
- pKd (PTPN13_1, Q12923): below the threshold
- pKd (RADIL, Q96JH8): 3.91
- pKd (RHPN1, Q8TCX5): 4.26
- pKd (SCRIB_1, Q14160): 4.02
- pKd (SCRIB_3, Q14160): 4.2
- pKd (SNTB1, Q13884): 3.49
- pKd (SNTG2, Q9NY99): 3.63

B5: ABCA7, Q8IZY2 (peptide)
chain: DDPSTAETVL
- pKd (APBA1_2, Q02410): below the threshold
- pKd (ARHGEF11, O15085): 3.98
- pKd (ARHGEF12, Q9NZN5-2): 4.63
- pKd (CASK, O14936): below the threshold
- pKd (DLG1_1, Q12959): below the threshold
- pKd (DLG2_2, Q15700): below the threshold
- pKd (DLG4_2, P78352): 3.7
- pKd (DLG5_1, Q8TDM6): below the threshold
- pKd (GRIP1_2, Q9Y3R0): below the threshold
- pKd (GRIP1_3, Q9Y3R0): below the threshold
- pKd (Inadl_10, Q8NI35): below the threshold
- pKd (Inadl_4, Q8NI35): below the threshold
- pKd (LRRC7, Q96NW7): below the threshold
- pKd (MAGI2_3, Q86UL8): 3.71
- pKd (MAGI2_5, Q86UL8): 4.27
- pKd (MPDZ_12, O75970): below the threshold
- pKd (NHERF4_2, Q86UT5): below the threshold
- pKd (PARD3_3, Q8TEW0): 4.56
- pKd (PDZRN3_1, Q9UPQ7): 4.09
- pKd (PTPN13_1, Q12923): below the threshold
- pKd (RADIL, Q96JH8): 3.52
- pKd (RHPN1, Q8TCX5): 4.92
- pKd (SCRIB_1, Q14160): 4.37
- pKd (SCRIB_3, Q14160): 4.73
- pKd (SNTB1, Q13884): 4.87
- pKd (SNTG2, Q9NY99): 4.19

Continued, values first:

- pKd (APBA1_2, Q02410): below the threshold
- pKd (ARHGEF11, O15085): below the threshold
- pKd (ARHGEF12, Q9NZN5-2): below the threshold
- pKd (CASK, O14936): below the threshold
- pKd (DLG1_1, Q12959): below the threshold
- pKd (DLG2_2, Q15700): below the threshold
- pKd (DLG4_2, P78352): below the threshold
- pKd (DLG5_1, Q8TDM6): below the threshold
- pKd (GRIP1_2, Q9Y3R0): below the threshold
- pKd (GRIP1_3, Q9Y3R0): below the threshold
- pKd (Inadl_10, Q8NI35): below the threshold
- pKd (Inadl_4, Q8NI35): below the threshold
- pKd (LRRC7, Q96NW7): below the threshold
- pKd (MAGI2_3, Q86UL8): below the threshold
- pKd (MAGI2_5, Q86UL8): below the threshold
- pKd (MPDZ_12, O75970): below the threshold
- pKd (NHERF4_2, Q86UT5): below the threshold
- pKd (PARD3_3, Q8TEW0): below the threshold
- pKd (PDZRN3_1, Q9UPQ7): below the threshold
- pKd (PTPN13_1, Q12923): below the threshold
- pKd (RADIL, Q96JH8): below the threshold
- pKd (RHPN1, Q8TCX5): below the threshold
- pKd (SCRIB_1, Q14160): below the threshold
- pKd (SCRIB_3, Q14160): below the threshold
- pKd (SNTB1, Q13884): below the threshold
- pKd (SNTG2, Q9NY99): below the threshold
B1: CTNNA1, P35221 (peptide)
chain: LSEFKAMDSI

- pKd (APBA1_2, Q02410): 4.73
- pKd (ARHGEF11, O15085): below the threshold
- pKd (ARHGEF12, Q9NZN5-2): below the threshold
- pKd (CASK, O14936): below the threshold
- pKd (DLG1_1, Q12959): below the threshold
- pKd (DLG2_2, Q15700): 3.62
- pKd (DLG4_2, P78352): 4.11
- pKd (DLG5_1, Q8TDM6): below the threshold
- pKd (GRIP1_2, Q9Y3R0): below the threshold
- pKd (GRIP1_3, Q9Y3R0): below the threshold
- pKd (Inadl_10, Q8NI35): below the threshold
- pKd (Inadl_4, Q8NI35): below the threshold
- pKd (LRRC7, Q96NW7): 3.81
- pKd (MAGI2_3, Q86UL8): below the threshold
- pKd (MAGI2_5, Q86UL8): below the threshold
- pKd (MPDZ_12, O75970): 3.57
- pKd (NHERF4_2, Q86UT5): below the threshold
- pKd (PARD3_3, Q8TEW0): below the threshold
- pKd (PDZRN3_1, Q9UPQ7): below the threshold
- pKd (PTPN13_1, Q12923): below the threshold
- pKd (RADIL, Q96JH8): 4.85
- pKd (RHPN1, Q8TCX5): below the threshold
- pKd (SCRIB_1, Q14160): below the threshold
- pKd (SCRIB_3, Q14160): below the threshold
- pKd (SNTB1, Q13884): below the threshold
- pKd (SNTG2, Q9NY99): below the threshold
B2: GJD4, Q96KN9 (peptide)
chain: HLRARKSEWV

- pKd (APBA1_2, Q02410): 3.5
- pKd (ARHGEF11, O15085): 4.21
- pKd (ARHGEF12, Q9NZN5-2): 3.5
- pKd (CASK, O14936): 3.75
- pKd (DLG1_1, Q12959): below the threshold
- pKd (DLG2_2, Q15700): 3.72
- pKd (DLG4_2, P78352): 3.7
- pKd (DLG5_1, Q8TDM6): 3.56
- pKd (GRIP1_2, Q9Y3R0): below the threshold
- pKd (GRIP1_3, Q9Y3R0): below the threshold
- pKd (Inadl_10, Q8NI35): below the threshold
- pKd (Inadl_4, Q8NI35): below the threshold
- pKd (LRRC7, Q96NW7): below the threshold
- pKd (MAGI2_3, Q86UL8): below the threshold
- pKd (MAGI2_5, Q86UL8): below the threshold
- pKd (MPDZ_12, O75970): 3.52
- pKd (NHERF4_2, Q86UT5): below the threshold
- pKd (PARD3_3, Q8TEW0): 4.66
- pKd (PDZRN3_1, Q9UPQ7): below the threshold
- pKd (PTPN13_1, Q12923): below the threshold
- pKd (RADIL, Q96JH8): 4.2
- pKd (RHPN1, Q8TCX5): below the threshold
- pKd (SCRIB_1, Q14160): 3.66
- pKd (SCRIB_3, Q14160): below the threshold
- pKd (SNTB1, Q13884): below the threshold
- pKd (SNTG2, Q9NY99): 3.49
B3: TRAF7, Q6Q0C0 (peptide)
chain: VDSTVKVWTC
